Laboratory results taken from article PMC10393190 (Genes & Development, 2022).
Read-outs that look alike come from different tables or passages of the source.

Legend:
[1] = molecular target: T1, Mer2 (Saccharomyces cerevisiae, UniProt P21651 1-314); test: EMSA
T1 sequence: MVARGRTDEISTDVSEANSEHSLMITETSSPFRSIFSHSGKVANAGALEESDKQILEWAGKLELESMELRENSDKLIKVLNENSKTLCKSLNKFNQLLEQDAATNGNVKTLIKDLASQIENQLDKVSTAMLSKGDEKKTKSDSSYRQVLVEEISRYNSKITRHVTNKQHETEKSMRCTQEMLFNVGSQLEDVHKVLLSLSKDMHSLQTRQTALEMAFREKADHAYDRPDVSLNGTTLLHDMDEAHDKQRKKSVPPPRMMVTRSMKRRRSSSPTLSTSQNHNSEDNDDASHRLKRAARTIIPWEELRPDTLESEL

[2] = molecular target: T2, REC114;MEI4 (Mus musculus;Mus musculus, UniProt Q9CWH4;Q8BRM6 1-259;1-389, |); test: competition
T2 sequence 1: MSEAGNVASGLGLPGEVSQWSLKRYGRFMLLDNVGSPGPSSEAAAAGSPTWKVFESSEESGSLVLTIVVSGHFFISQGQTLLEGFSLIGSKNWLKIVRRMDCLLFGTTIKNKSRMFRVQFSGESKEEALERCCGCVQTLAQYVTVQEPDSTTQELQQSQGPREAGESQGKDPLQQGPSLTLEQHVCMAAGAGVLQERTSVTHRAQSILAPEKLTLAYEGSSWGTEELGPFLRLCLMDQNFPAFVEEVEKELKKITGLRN
T2 sequence 2: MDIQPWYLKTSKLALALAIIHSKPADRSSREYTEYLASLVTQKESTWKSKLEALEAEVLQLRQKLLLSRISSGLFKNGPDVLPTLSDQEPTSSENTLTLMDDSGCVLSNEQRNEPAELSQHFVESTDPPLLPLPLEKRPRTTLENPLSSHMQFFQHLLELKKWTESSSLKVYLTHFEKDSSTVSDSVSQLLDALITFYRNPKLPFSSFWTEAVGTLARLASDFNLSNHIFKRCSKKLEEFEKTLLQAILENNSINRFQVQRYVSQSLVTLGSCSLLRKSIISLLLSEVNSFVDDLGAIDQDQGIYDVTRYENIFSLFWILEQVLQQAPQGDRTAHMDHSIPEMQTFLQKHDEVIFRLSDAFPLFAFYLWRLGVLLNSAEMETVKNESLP

[3] = molecular target: T3, Rec114;Mei4 (Saccharomyces cerevisiae;Saccharomyces …, UniProt P32841;P29467 1-428;1-408, |); test: competition
T3 sequence 1: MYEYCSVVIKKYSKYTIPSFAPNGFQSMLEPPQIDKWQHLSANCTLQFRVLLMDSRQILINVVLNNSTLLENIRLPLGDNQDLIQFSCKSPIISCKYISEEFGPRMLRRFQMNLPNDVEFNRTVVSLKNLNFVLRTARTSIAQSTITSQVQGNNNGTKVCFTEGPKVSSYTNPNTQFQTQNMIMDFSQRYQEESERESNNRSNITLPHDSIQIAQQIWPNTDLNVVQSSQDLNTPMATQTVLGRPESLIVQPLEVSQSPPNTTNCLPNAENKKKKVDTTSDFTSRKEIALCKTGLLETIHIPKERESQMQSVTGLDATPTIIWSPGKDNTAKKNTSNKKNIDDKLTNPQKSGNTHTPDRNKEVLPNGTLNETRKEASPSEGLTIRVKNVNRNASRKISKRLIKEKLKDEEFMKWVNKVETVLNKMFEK
T3 sequence 2: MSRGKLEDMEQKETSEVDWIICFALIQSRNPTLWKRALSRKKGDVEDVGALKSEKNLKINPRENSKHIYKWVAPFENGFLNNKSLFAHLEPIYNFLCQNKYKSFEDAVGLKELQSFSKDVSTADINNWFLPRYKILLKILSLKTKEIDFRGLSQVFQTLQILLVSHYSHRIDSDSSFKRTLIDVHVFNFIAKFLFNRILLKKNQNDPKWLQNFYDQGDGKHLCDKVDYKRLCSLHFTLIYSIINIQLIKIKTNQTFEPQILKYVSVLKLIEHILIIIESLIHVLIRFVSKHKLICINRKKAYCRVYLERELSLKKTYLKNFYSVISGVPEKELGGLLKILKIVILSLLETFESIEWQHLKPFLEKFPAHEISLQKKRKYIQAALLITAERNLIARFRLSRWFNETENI

[4] = molecular target: T4, Rec15 coiled-coil domain (Schizosaccharomyces pombe, UniProt Q09094 1-160); test: competition
T4 sequence: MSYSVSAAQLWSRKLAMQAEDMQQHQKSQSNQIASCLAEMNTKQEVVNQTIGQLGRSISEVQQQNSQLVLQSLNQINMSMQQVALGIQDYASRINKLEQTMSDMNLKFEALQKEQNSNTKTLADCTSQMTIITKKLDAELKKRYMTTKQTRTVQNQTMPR

[5] = molecular target: T5, IHO1 coiled-coil domain (Mus musculus, UniProt Q6PDM4 109-267); test: competition
T5 sequence: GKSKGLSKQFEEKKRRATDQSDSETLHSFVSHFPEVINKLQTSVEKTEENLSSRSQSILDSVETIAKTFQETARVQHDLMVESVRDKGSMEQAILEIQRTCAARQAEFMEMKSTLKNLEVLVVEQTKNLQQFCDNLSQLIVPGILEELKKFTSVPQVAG

[6] = molecular target: T1, Mer2; test: EMSA; remark: listed apart in the source
[7] = molecular target: T1, Mer2; test: EMSA; remark: listed apart in the source
[8] = molecular target: T1, Mer2; test: EMSA; remark: listed apart in the source
[9] = molecular target: T1, Mer2; test: EMSA; remark: listed apart in the source

B1: HJ40 (cb095/cb096/cb097/cb098) (structured_DNA)
DNA 1: CTAGTATAGAGCCGGCGCGCCATGTCTAGATAGCGTTAGGTCTGCCGAATAGTACTACTCGGATCCCGAGCGAACCACGC
DNA 2: GCGTGGTTCGCTCGGGATCCGAGTAGTACTATTCGGCAGAGGATTCGAATAGGCCTAATCGAATTCCGCCATCGATGCAC
DNA 3: GTGCATCGATGGCGGAATTCGATTAGGCCTATTCGAATCCAGACGCGAGTAGATCTTCACGGTACCCGCGGTTACCCGTG
DNA 4: CACGGGTAACCGCGGGTACCGTGAAGATCTACTCGCGTCTCCTAACGCTATCTAGACATGGCGCGCCGGCTCTATACTAG
apparent K (half saturation) [1]: 9.2 ± 1 nM
binding signal [2]: > 20 fold higher affinity than dsDNA
binding signal [3]: ~10 fold better competitor than dsDNA
binding result [4]: binds
binding result [5]: binds

B2: dsDNA 80 bp (cb095/cb100) (dsDNA)
DNA 1: CTAGTATAGAGCCGGCGCGCCATGTCTAGATAGCGTTAGGTCTGCCGAATAGTACTACTCGGATCCCGAGCGAACCACGC
DNA 2: GCGTGGTTCGCTCGGGATCCGAGTAGTACTATTCGGCAGACCTAACGCTATCTAGACATGGCGCGCCGGCTCTATACTAG
apparent K (half saturation) [6]: 36.8 ± 13.3 nM

B3: HJ20 (cb922/cb923/cb924/cb925) (structured_DNA)
DNA 1: CAACGTGGGCAAAGATGTCCTAGCAATGTAATCGTCTATG
DNA 2: ATTCTACCAGTGCCAGTGATGGACATCTTTGCCCACGTTG
DNA 3: ATCCTCTAGACAGCTCCATGATCACTGGCACTGGTAGAAT
DNA 4: CATAGACGATTACATTGCTACATGGAGCTGTCTAGAGGAT
apparent K (half saturation) [7]: 23.9 ± 2.9 nM

B4: 3' flaps (cb095/cb098/cb122) (structured_DNA)
DNA 1: CTAGTATAGAGCCGGCGCGCCATGTCTAGATAGCGTTAGGTCTGCCGAATAGTACTACTCGGATCCCGAGCGAACCACGC
DNA 2: CACGGGTAACCGCGGGTACCGTGAAGATCTACTCGCGTCTCCTAACGCTATCTAGACATGGCGCGCCGGCTCTATACTAG
DNA 3: AGACGCGAGTAGATCTTCACGGTACCCGCGGTTACCCGTG
apparent K (half saturation) [8]: 34.4 ± 25.2 nM

B5: Fork (cb095/cb098/cb122/cb120) (structured_DNA)
DNA 1: CTAGTATAGAGCCGGCGCGCCATGTCTAGATAGCGTTAGGTCTGCCGAATAGTACTACTCGGATCCCGAGCGAACCACGC
DNA 2: CACGGGTAACCGCGGGTACCGTGAAGATCTACTCGCGTCTCCTAACGCTATCTAGACATGGCGCGCCGGCTCTATACTAG
DNA 3: AGACGCGAGTAGATCTTCACGGTACCCGCGGTTACCCGTG
DNA 4: GCGTGGTTCGCTCGGGATCCGAGTAGTACTATTCGGCAGA
apparent K (half saturation) [9]: 24.4 ± 5.5 nM
